Laboratory results reported in the nanobody polyreactivity screen of Harvey et al. (2022).

assay: yeast display, Sf9 membrane polyspecificity reagent, FACS + sequencing; frameworks hold sequencing errors
In short: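 Polyreactivity labels are assigned by the sorting gate from which each nanobody was recovered. The gates were low and high (top ~1%), set on anti-HA fluorescence for expression and streptavidin fluorescence for reagent binding. Before sorting, galactose-induced (36–48 hours) yeast display cells were stained for 1 hour at 4 °C with 10% biotinylated, detergent-solubilized Sf9 membrane reagent.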

| Sequence | polyreactivity (PSR sort gate) |
| --- | --- |
| QVQLVESGGGLVQAGCSLRLSCAASGYMGWYRQAPGKERELVATISGSGGSTYYADSVKGRFTISRDNAKNTVYLQMNSLKPEDTAVYYCTTEIWGVNRSGYDYWGQGTQVTVSS | low polyreactivity |
| QVQLVESGGGLVQAGGILRLSCAASGIIFVSYDRGWYRQAPGKERELVAAINRGGRTYYADSVKGRFTISRDNAKNTVYLQMNSLKPEDTAVYYCAAQFHFRPFSWTYDYWGQGTQVTVSS | high polyreactivity |
| QVQLVESGGGLVQAGGSLRLSCAASGRTFGPYAMGWYRQAPGKERELVAAIRYIDDSTFYADSVKGRFTISRDNAKNTVYLQMNSLKPEDTAVYYCAAQRRVVGRHGLSLIRYDYWGQGTQVTVSS | low polyreactivity |
| QVQLVESGGGLVQAGGSLRLSCAASGRTFYSYVMGWYRQAPGKEREFVADISQSGGRTYYADSVKGRFTISRDNAKNTVYLQMNSLKPEDTAVYYCAAAKRGSYARGYYWGQGTQVTVSS | low polyreactivity |
| QVQLVESGGGLVQAGGSLRLSCAASGFTFPYNAMGWYRPAPGTARELVAGISYGGGRTYYADSVKGRFTFSRDNAKNTVYLQMNSLKPEDTAVYYCARRPGAWKYVYTGDYWGQGTQVTVSS | high polyreactivity |
| QDQLVESGGGLVQAGGILSLICAASGITFHSNDMGWYRQAPGKERELVAAISWSDDTTYYADSVKGRFTISRDNAKNTVYLQMNSLKPEDTAVYYCAAEFFGSYGYYEYDYWGQGSQVTVSS | high polyreactivity |
| QVQLVDSGGGLVQAGGSLRLSCAASGRTFRSNAMGWYRQAPGKERELVAAITGSGGRTYYADSVKGRFTISRDNAKNTVYLQMNSLKPEDTAVYYCAARGRAHWHYDDWGQGTQVTVSS | high polyreactivity |
| QVQLVESGGGLVQAGGSLRLSCAASGFTLVGYAMGWYRQAPGKERELVADINYSGGRTYYADSVKGRFTISRDNAKNTVYLQMNSLNPEDTAVYYCNAAGALSWFYYGYDYWGQGTQVTVSS | low polyreactivity |
| QVQLVESGGGLVQAGGSLRLSCAASGRIFGSYAMGWYRQAPGKERELVASIRSRGGRTYYADSVKGRFTISRDNAKNTVYLQMNSLKPEDTAVYYCAADVGVYYYSFYYWGQGTQVTVSS | high polyreactivity |
| QVQLVESGGGLVQAGGSLRLSCAASGYTFRYNAMGWYKQAPWKDRELVATITRGGSTNYADSVKGRFTISRDNAKNTVYLQMNSLKPEDTEVYYCNKEAAPLGFVPSYYGRDYWGQGTQVTVSS | low polyreactivity |
| QVQLVESGGGLVQAGGSLRLSCAASGRTFGRNTMGWYRQAPGKERELVAAIDWSGGSTYYADSVKGRFTISRDNAKNTVYLQMNSLKPEDTAVYYCAAKTRWNFYYWGQGTQVTVSS | high polyreactivity |
| QDQLVESGGGLVQAGGSLRLSCAASGRIFGSYAMGWYRQAPGKERELVAAISIGGRTYYADSVKGRFTISRDNAKNTVYLQMNSLKPEDTAVYYCNAPAYYWRHYVYDSGYDYWGQGTQVTVSS | low polyreactivity |
| QVQLVDSGGGLVQAGGSLRLSCAASVQTIYQKAMGWYRPAPGKERELVAAITRSGGSTRYADSVKGRFTISRDNAKNTVYLEMSSLKPEDTSVFYCNARYRIGSWYEFGSWGQGTQVTVSS | high polyreactivity |
| QVQLVESGGGLVQAGGSLRLSCAASGYTSRSNAMGWYRQAPGKERELVAAIRGGGNTKYADSVKGRFTISRDTAKNTVYLQMNSLKPEDTAVYYCAVVTGSFRTRYTYYYWGLGTQVTVSS | high polyreactivity |
| QVQLVESGGGLVQAGGSLRLSCAASGITFNHYTMGWYRQAPGKERELVAAISSRGSTTYYADSVKGRFTISRDNAKNTVYLQMNSLKPEDTAVYYCAARYPTYYRPRYRGRPGYDYWGKGTQVTVSS | high polyreactivity |
| QVQLVESGGGLVQAGGSLRLSCAASGRIFRYNAMGWYRQAPGKERELVAAITWRGGSTYYADSVKGRFTISRDNAKNTVYLQMNSLKPEDTAVYYCNKVYSLTFEYDYWGQGTQVTVSS | high polyreactivity |
| QVQLVESGGGLVQAGGSLRLSCAASGSIFTNYAMGWYRQAPGKERELVAAISQSGDTTYNADSVKGRFTISRDNAKNTVYLQMNSLKPEDTAVFFCAAQYYRWFYYWGQGTQVTVSS | high polyreactivity |
| QVQLVESGGGLVQAGGSLRLSCAASGSIFWTNAMGWYRQAPGKERELVAAIRVSTGSTYYADSVKGRFTISRDNAKNTVYLQMNSLKPEDTAVYYCAARTYGWGYDYWGQGTQVTVSS | low polyreactivity |
| QVQLVESGGVLVQAGGSLRLSCAASGIIFFYNAMGWYRQAPGKERELVAAISARGGRTYYADSVKGRFTISRDNAKNTVYLQMNSLKPEDTAVYYCNAYRYGWEDMDYWGQGTQVTVSS | high polyreactivity |
| QVQLVESGGGLVQAGGSLRLSCAASGLTLPYNAMGSYRQAPGKERELVAAITCIGGSTYYADSVKGRFTISRDNAKNTVYLEMNSLKPEDSAVYYCAKEVRGPIIYLEGYWGQGTQVTVSS | low polyreactivity |
| QVQLVESGGGLVQAGGSLRLSCAASGSILRIYAMGWYSQAPGKEMELVARITWSGGRTYYADSVKGRFTISRDNAKNTVYLQMNSLKPEDTAVYDCNADLQRWGWEYDYWGQGTQVTVSS | high polyreactivity |
| QVQLVESGGGLVQAGGSLRLSCAASGFIFSFYAMGWYRQAPGKESELVAAITSSGATTYYADSVKGRFTISRDNAKNTVYLQMNSLKPVDTAVYYCNAVYRRDTGYYRYYYWGQGTQVTVSS | high polyreactivity |

| Sequence | polyreactivity (PSR sort gate) |
| --- | --- |
| QVQLVESCGGLVQAGGSLRLSCAASGFIFQPYAMGWYRQAPGTERELVAAITSRGGRTYYADSVKGRFTISRDNAKNTVYLQMNSLKPEDTAVYSCNAVIYACEYYYWGQGTQVTVSS | low polyreactivity |
| QVQLVESGGCLVQAGGSLRLSCAASGSTFPIYAMGWYRQAPGKERELVARITWNGGRTYYADSVKGRFTISRDNAKNTVYLQMNSLKPEDTAVYYCNALYYHNLEGNYWGQGTQVTVSS | high polyreactivity |
| QVQLVESGGRLVQAGGSLRLSCAASGSTFSRNARGWNRQAPGKERELVAAISRSSSRTYYADSVKGRFTISRDNAKNTVYLQMNSLKPEDTAVYYCAADGYVWTPYLYDYWGQGTQVTVSS | high polyreactivity |
| QVQLVESGGGLVQAGGSLRLSCAASGIICYENTMGWYRQAPGKERELVAAINSGGSTYYADSVKGRFTISRDNAKNTVYLQMNSLKPEDTAVYYCAADDYSGLYYSSTYRYEYWGQGTQVTVSS | low polyreactivity |
| QVQLVESGGGLVQAGGSLRLSCAASGSIFRVYAMGWYRQAPGKERELVAAISWGGGTTYYADSVKGRFTISRDNAKNTVYLQMNSLKPEDTAVYYCNKVGVRSGARSIYVVRRYEYWGQGTQVTVSS | high polyreactivity |
| QVQLVESGGGLVQAGGSLRLSCAASGITFKANAMGWYRQAPGKERELVAAIRQNGGDTYYADSVKGRFTISRDNAKNTVYLQMNSLKPEDTAVYYCNARLRGAGGYTFYYWGQGTQVTVSS | high polyreactivity |
| QVQLVESGGGLVQAGGRLRLICAASGFIFWKNAMGWYRQSPGKQRELVAAISTRGGSTYYADSVKGRFTISRDNAKNSVYLQMNSLKPEDTAVYYCNKEWYQYKHNYWGQGTQVSVSS | low polyreactivity |
| QVQLVESGGGLVQAGGSLRLICAATGSTFVYNAMGWYRQAPGKEREFVAVINWSGGRTYADSVKGRFTISRDNAKNTVYLQMNSLKPEDTAVYYCNGERRTYRVALQYRRYDYWGQGTQVTVSS | high polyreactivity |
| QVQLVASGGGLLQAGGSLRLSCAASGIIFDRYTMGWYRQAPGKERELVASISDDDGSTYYADSVKGRFTISRDNAKNTVYLQMNSLTPEDTAVYYCKALSIIFDYWGQATQVTVSS | low polyreactivity |
| QVQLVESGGGLVQAGGSLRLSCAASGRIFGLYAMGWYTQAPGKERELVAAYADSVKGRFTISRDNAKNTVYLQMNSRKPVDTAVYYCAKGPLYAGSTIDLRDFNYWGQGTQVTVSS | low polyreactivity |
| QVQLVESGGGLVQAGGSLRLSCAASGRIFYYNGMGWYRQAPGKERELVAAIRWSGGSTRYADSVKGRFTISRDNAKNTVYLQMNSLKPEDTAVYYCAADGFYRWYPYKRYQFYYWGQGTQVTVSS | high polyreactivity |
| QVQLVESGGGLVQAGGSLRLSCAASGRTFVIYVMGLYRQAPGKERELVARISGSDGGTYYADSVKGRFTISRDNAKNTVYLQMNSLKPEDTAVYYCATARYPVAGLMDYWGQGTQVTVSS | low polyreactivity |
| QVQLVESGGGLVQAGGSLRLSCAASGFTIRSYVMGWYRQAPGKERELVAAIRRSGGSTYYADSVKGRFTISRDNAKNTVYLQMNSLKPEDTAVYYCAVGARWYWSYYWGQGTQVTVSS | high polyreactivity |
| QVQLVESGVGLVQAGGSLRLSCAASGRIFAFYTMGWYRQAPGKERELVAASSTRGDSTYYADSVKGRFTISRDNAKNTVYLQMNSLKAEDTAVYYCAKSRQTSGRVRFDYWGQGTQVTVSS | low polyreactivity |
| QVQLVESGGGLVQAGGSLRLSCAASGSTFGFYTMGWYRPAPGKERELVAAISWSTGRTYYADSVKGRFTISRDNAKNTVYLQMNSLKPEDTAVYYCAARAVDKYRFGGRYDYWGQGTQVTVSS | low polyreactivity |
| QVQLHESGRGLVQAGGSLRLSCAATATISYAGPMGWYRQAPGKEREFVAGIGVGSNTNYADSVKGRYTIIRDNAKNTVYLQMNSLKPEDTAVYSCAVGGYAPLGRPYWGQGTQVTVSS | low polyreactivity |
| QVQIVESGGGLVQAGGSLRLRCAASGRIVKYAMGWYRHAPGKERELVAAINSGGSTKYADSVKGRFTISRDNAKITVYLQMICLKPEDTAVYYCAARILYHMDLGQGTQVTVSS | high polyreactivity |
| QVQLVESGGGLVQAGGSLRLSCAASGLTIQRNDMGWYRQAPGKEREFVATITSNAGSTYYADSVKGRFTISRDNAKNPVYFQMNSLKPEDTAVYYWARERWWGGSDYWGQGTQVTVSS | high polyreactivity |
| QVQLVESGGGLVQAGGSLRLSCAASGSSFGRYVMGSYRPAPGKERELVAAIRSRGGSTYYADSVKGRFTISRDIAKNTVYLQMNSLKPEYTAVYYCNDVDRKPYRTYDYWGQGTQVTVSS | high polyreactivity |
| QVQLVESGGGLVQAGGSLRLSCAASGSIFNVYAMGWYRQAPGKERELVAAISDGDGSTFYADSVKGRFTISRDNAKNTVYLQMNSLKPEDTAVYYCAKDYRWDRKFDYWGQGTQVTVSS | low polyreactivity |
| QVQLVESGGGLVQAGGSLRLSCAASGRTFYSYVMGWYRQAPGKERELVAAIRSSGRTYYADSVKGRFTISRDNAKNTVYLQMNRLTPEDTAVYYCAAYAWVSGSLYDSWGQGTQVTVSS | high polyreactivity |
